Data published in IntAct's records for PubMed 10921873.

Assays:
copb_yeast SEC26 [1] = target: copb_yeast SEC26 (UniProt P41810)
cope_yeast SEC28 [2] = target: cope_yeast SEC28 (UniProt P40509)
glo3_yeast GLO3 [3] = target: glo3_yeast GLO3 (UniProt P38682)
gcs1_yeast GCS1 [4] = target: gcs1_yeast GCS1 (UniProt P35197)
copb_yeast SEC26 [5] = target: copb_yeast SEC26 (UniProt P41810); remark: listed apart in the source
cope_yeast SEC28 [6] = target: cope_yeast SEC28 (UniProt P40509); remark: listed apart in the source
glo3_yeast GLO3 [7] = target: glo3_yeast GLO3 (UniProt P38682); remark: listed apart in the source
gcs1_yeast GCS1 [8] = target: gcs1_yeast GCS1 (UniProt P35197); remark: listed apart in the source

Measured: effect of a mutation on the interaction

Sequence of ADP-ribosylation factor 1 (Homo sapiens), P84077 Q71L (P84077 whole entry Q71L): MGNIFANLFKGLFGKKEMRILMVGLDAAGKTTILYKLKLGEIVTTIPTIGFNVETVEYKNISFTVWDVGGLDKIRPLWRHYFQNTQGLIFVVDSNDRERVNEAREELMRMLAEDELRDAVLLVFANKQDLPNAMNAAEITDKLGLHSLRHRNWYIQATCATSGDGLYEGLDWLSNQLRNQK
Sequence of copb_yeast SEC26 (P41810 whole entry): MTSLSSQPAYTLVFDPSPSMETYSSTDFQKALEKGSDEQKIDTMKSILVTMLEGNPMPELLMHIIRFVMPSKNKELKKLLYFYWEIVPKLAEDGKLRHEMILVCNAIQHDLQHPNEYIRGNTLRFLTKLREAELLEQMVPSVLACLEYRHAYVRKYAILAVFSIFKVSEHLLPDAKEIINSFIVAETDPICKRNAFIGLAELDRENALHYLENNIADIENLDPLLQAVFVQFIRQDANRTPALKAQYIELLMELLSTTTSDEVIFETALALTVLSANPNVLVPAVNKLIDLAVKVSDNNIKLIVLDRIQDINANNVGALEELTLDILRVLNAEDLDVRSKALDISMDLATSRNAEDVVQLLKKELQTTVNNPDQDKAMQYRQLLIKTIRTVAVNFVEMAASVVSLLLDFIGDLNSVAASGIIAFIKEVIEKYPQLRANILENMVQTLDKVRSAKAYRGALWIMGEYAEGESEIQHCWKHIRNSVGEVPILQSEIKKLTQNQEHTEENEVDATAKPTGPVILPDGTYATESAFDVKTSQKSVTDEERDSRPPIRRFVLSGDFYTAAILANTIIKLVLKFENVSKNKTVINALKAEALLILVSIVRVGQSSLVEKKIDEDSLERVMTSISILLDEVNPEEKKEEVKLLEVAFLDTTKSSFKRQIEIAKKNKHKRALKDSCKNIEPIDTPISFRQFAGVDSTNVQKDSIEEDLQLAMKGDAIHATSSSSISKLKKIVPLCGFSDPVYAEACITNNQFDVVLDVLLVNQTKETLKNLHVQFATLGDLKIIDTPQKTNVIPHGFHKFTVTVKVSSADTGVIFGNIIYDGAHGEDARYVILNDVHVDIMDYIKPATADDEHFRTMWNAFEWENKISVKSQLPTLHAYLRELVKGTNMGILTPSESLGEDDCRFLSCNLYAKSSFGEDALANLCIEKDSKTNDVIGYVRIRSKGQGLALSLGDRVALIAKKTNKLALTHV
Sequence of glo3_yeast GLO3 (P38682 whole entry): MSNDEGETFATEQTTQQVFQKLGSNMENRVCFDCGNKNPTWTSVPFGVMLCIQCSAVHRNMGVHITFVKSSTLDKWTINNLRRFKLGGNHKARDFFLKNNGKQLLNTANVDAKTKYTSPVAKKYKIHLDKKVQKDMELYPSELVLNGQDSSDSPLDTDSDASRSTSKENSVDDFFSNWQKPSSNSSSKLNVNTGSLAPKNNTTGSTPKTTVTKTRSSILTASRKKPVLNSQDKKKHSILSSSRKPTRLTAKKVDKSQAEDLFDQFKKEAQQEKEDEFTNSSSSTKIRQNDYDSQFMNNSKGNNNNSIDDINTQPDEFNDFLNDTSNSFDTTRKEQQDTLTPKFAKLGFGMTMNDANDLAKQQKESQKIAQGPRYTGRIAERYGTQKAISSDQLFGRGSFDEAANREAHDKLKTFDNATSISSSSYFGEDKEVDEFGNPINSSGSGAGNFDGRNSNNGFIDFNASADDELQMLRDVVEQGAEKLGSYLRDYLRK
Sequence of cope_yeast SEC28 (P40509 whole entry): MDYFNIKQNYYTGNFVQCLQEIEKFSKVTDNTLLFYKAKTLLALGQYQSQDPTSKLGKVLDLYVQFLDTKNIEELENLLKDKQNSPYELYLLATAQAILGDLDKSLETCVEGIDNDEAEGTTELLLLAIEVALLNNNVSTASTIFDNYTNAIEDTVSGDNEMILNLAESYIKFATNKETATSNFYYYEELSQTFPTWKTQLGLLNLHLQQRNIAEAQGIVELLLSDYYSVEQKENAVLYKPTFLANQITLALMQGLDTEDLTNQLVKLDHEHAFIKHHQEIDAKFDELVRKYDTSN
Sequence of gcs1_yeast GCS1 (P35197 whole entry): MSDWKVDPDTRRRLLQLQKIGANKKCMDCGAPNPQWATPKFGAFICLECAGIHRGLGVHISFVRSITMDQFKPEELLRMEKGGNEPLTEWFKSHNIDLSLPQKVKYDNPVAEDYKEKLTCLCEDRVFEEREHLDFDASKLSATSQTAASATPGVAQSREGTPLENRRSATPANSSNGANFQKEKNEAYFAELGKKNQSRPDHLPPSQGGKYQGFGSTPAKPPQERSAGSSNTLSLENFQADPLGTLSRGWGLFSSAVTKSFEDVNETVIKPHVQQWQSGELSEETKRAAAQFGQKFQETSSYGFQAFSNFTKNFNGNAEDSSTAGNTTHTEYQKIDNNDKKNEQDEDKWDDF

ADP-ribosylation factor 1 (Homo sapiens), P84077 Q71L
increasing interaction: copb_yeast SEC26 [1] | cope_yeast SEC28 [2] | glo3_yeast GLO3 [3] | gcs1_yeast GCS1 [4]

ADP-ribosylation factor 1 (Homo sapiens), P84077 N126I
increasing interaction: copb_yeast SEC26 [5] | cope_yeast SEC28 [6] | glo3_yeast GLO3 [7] | gcs1_yeast GCS1 [8]
